From the nanobody polyreactivity screen of Harvey et al. (2022)

Experiment: yeast display, Sf9 membrane polyspecificity reagent, FACS + sequencing; frameworks hold sequencing errors
Summary of the method: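 A synthetic nanobody library was expressed on Saccharomyces cerevisiae BJ5465 by galactose induction for 36–48 hours. The library was stained for 1 hour at 4 °C with 10% biotinylated, detergent-solubilized Sf9 membrane reagent and enriched with streptavidin microbeads before FACS. Low and high (top ~1%) gates were set on anti-HA fluorescence for expression and streptavidin fluorescence for reagent binding, and each polyreactivity label reflects the gate of origin.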

## QVQLVESGGGLVQAGGSLRLSCAASGIIFLYYAMGWYRQAPGKERELVAAISKSGGSTYYADSVKGRFTISRDNAKNTVYLQMNSLKPEDTAVYYCAARLWHLSYAGQGGDYWGQGTQVTVSS
  polyreactivity (PSR sort gate): low polyreactivity

## QVQLVESGGGLVQAGGSLRLSCAASGRIFGFNTMGWYRQAPGKERELVAAITSRDGRTYYADSVKGRFTISRDNAKNTVYLQMNSLKPEDTAVYYCATQYRWYAESHGLVTSVIMYSWGQGTQVTVSS
  polyreactivity (PSR sort gate): low polyreactivity

## QVQLVESGGGLVQAGGSLRLSCAASGSTLDTNAMGWYRQAPGKERELVAVIDSGGTTNYADSVKGRFTISRDNAKNTVYLQMNSLKPEDTAVYYCAADYAYFGYWFEGYDYWGQGTQVTVSS
  polyreactivity (PSR sort gate): low polyreactivity

## QVQLVESGGGLVQAGGSLRLICAASGSTFPVNAMGWYRQAPGKERELVAAIRSSTGRTYYADSVKGRFTISRDNAKNTVYLQMNSLKPEDTAVYYCAAYYLGQYEYDYWGQGTQVTVSS
  polyreactivity (PSR sort gate): low polyreactivity

## QVQLVESGGGLVQAGGSLRLSCAASGFTFNYYAMGWYRQAPGKERELVAAISRSGGSTSYADSVKGRFTISRDNAKNTVYLQMNSLKPEDTAVYYCNAVRAIYRYDYWGQGTQVTVSS
  polyreactivity (PSR sort gate): high polyreactivity

## QFQLVESGGGFVQAGGSLRLSCAASGRTFYPYAMGLYRQAPGKERELVAAISSSGGSTYYADSVKGRFTISRDNAKNTVYLQMNSLKPDDTAVYYCAAVASKYKYTGGMDYWGQGTQVTVSS
  polyreactivity (PSR sort gate): high polyreactivity

## QVQLVESGGGLVQAGGSLRLSCAASGRNFSYYVMGWYRPAHGKERELVAAITSGGSTNYAHSVKGRFTISRDNAKNTVYLQMNSLKPEDTAVYYCNRAYTYINRLYGYWGQGTQVTVST
  polyreactivity (PSR sort gate): high polyreactivity

## QVQLVESGGGLVQAGGSLRLSCAASGRAFYGNAMGWYRPAPGKERELVASISQRGGSTYYADSVKGRFTISRDTAKNTVYLQMNSLKPEDTAVYYCAARRKGYSTGLGHRISYDYWGQGTQVTVSS
  polyreactivity (PSR sort gate): high polyreactivity

## QVQLVESGGGLVQAGGSLRLSCAASGLTCASYVMGWYRQAPGKERELVAAISSSGDSTYYADSVKGRFTISRDNAKNTFYLEMNSLKPEDTAVYYCASNDYVWGQGTQVTVSS
  polyreactivity (PSR sort gate): low polyreactivity

## QVQLVESGGGLVQAGGSLRLSCAASGRIVGAYAMGWYRQAPGKERELVAAITSAGSTHYADSVKGRFTISRDNAKNTVYLQMNSLKPEDSAVYYCAADGIARAYVLFYAYDFLYDYWGQGTQVTVSS
  polyreactivity (PSR sort gate): low polyreactivity

## QVQLVESGGGLVQAGGSLRLSCAASGSIFSFYAMGWYRQAPGKERELVAAISSSGGSTYYADSVKGRFTISRDNAKNTVYLKMNSLKPEDTAVYYCAARFAYGGGYWGQGTQVTVSS
  polyreactivity (PSR sort gate): high polyreactivity

## QVQLVESGAGLVQAGGSLRLSCAASGNIFVEYAKGWYRQAPGKERELVAAITNTGGRTHYADSVKGRFTISRDNAKNTVYFQMNSLKPEDTAVYDCASRRTGYYGTRDYWGQVTQVTVSS
  polyreactivity (PSR sort gate): high polyreactivity

## QVQLVESGGGLVQAGGSLRLSCAASGLTFSQNAMGWYRQAPGKERELVAAITRSGSTTHYADSVKGRFTISRDNAKNTVYLQMNSLKPEDTAVYYCAAVAFQTRYYYWGQGTQVTVSS
  polyreactivity (PSR sort gate): high polyreactivity

## QVQLEESGGGLVQAGGSLRLSCAASGSTFYRYAMGCYRQAPGKERELVAAMSRGGGRTNYADSVKGRFTISRDNAKNTVYLQMNSLKPEDTAVYYGAAYTYSFRANHDYWGQGTQVTVSS
  polyreactivity (PSR sort gate): high polyreactivity

## QVQLVESGGGLVQAGGSLRLSCAASGRTFTRYAMGWYRQPPGKESELVAAISRGGNTNYADSVKGRFTISRDNAKNTVYLQMNSLKPEDTAVYYCARVYGGYSVPSAYGSWGQGTQVTVSS
  polyreactivity (PSR sort gate): high polyreactivity

## QVQLVESGGGLVQAGGSLRLSCAASGSTFGGNAMGWYRQAPGKERELVAAISSGGTTNYADSVKGRFTISRDNAKNTVDLQMNSLKPEDTAVYYCNKPHRWPQAGYGYWGQGTQVTVSS
  polyreactivity (PSR sort gate): high polyreactivity

## QVQLVESGGGLVQAGGSLRLICAASGSFFSKYAMGWYRQAPGTEREWVAAISWSGTSTYYADSVKGRFTISRDNAKITVYLQLNSLKTEDNAVSYCAASSPRSLSLLGYWGQGTQVTESS
  polyreactivity (PSR sort gate): low polyreactivity

## QVQLVESRGGLVQAGGSLRLSCAASGFTFGNYAMGWYRQAPGKEREMVAAISWSGGSTYNADSVKGRFTISRDNAKKTVYLQMNSLKPEDTAVYYCNAIRGSLWESDYWGQGTQVTVSS
  polyreactivity (PSR sort gate): high polyreactivity

## QVQLVESGGGLVQAGGSLRLSCAASGNIFFSNAMGWYRQAPGKERELVASISQSGGSTYYADSVKGRFTISRDNAKNTVYLQMNSLKPEDTAVFYCAATQVRRGPAWGRDYWGQGTQVTVSS
  polyreactivity (PSR sort gate): low polyreactivity

## QVQLVESGGGLVQAGGSLRLSSAASGITLTANAMGCYRQAPGKERELVAAISRGGSTYYADSVKGRFTISRDNAKNTVYLQMNSLKPEDTAVYYCNKAGGYWYAKRDYDYWGQCTQVTVSS
  polyreactivity (PSR sort gate): high polyreactivity

## QVQLVESGGGLVQAGGSLRLSCAASGRTFGSNAMGRYRQAPGKDRELVAAISVRGGRTYYADSVKGRFTISRDIAKNTGYLQMNSLKPEDTAVYYCNAVYRTYEYYWGQGTQVTVSS
  polyreactivity (PSR sort gate): high polyreactivity

## QVQLVESGGGLVNAGGSLRLICDASGLIFYKNAMGWYRQAPGKERELVAAISWRDGRTYYADSVKGRFTISRDNAKNTVYLQMISLIPEDSAVYYCNAVRGITSYDYYYWGQGTQVTVSS
  polyreactivity (PSR sort gate): high polyreactivity

## QVQLVESGGGLVQAGGSLRLTCAASGYTFGKYAMGWYREAPGKERELVATIRSGGSTNYADSLKGRFTISRDNAKNTVYLQMNSLKPEDTAVYYCNKRYRYEYGYDYWGQGTLVTVSS
  polyreactivity (PSR sort gate): high polyreactivity

## QVQLVESGGGLFQAGGSLRLSCAASGFSFYGNTMGWYRQAPGKERELFASITSGSSTHYADSVKGRFTISRDNAKNTVYLQMNSLKPDDTAVYYCNVEDIQFGKYDYWGQGTQVTVSS
  polyreactivity (PSR sort gate): low polyreactivity

## QVQLVESGGGLVQAGGSLRLSCAASGIYSYVMGWYRQAPGKERELVAAISGTGGRTYYADSVKGRFTISRDNAKNTVYLQMNSLKPEDTAVYYCAARGIYQPKTFDYWGQGTQVTVSS
  polyreactivity (PSR sort gate): high polyreactivity

## QVKLVESGGCLVQEGGSLRLSCAASGSIFGHYVMRWYRQAPGKERELVAAINRGGSTYYADSVKGRFTISRDNAKNTVYLQMNSLKPEDTAVYYCAAGYPSWYYGYPYDSWGQGTQVTVSS
  polyreactivity (PSR sort gate): low polyreactivity

## QVQLVESGGGLVQAGGSLRLSCAASGSMFKNNAMGWYRQAPGKARELVAAISRSGGSTYYADSVKGRFTISRDNAKNTVYLPMNSLKPEDTAVYYCARDVDTHYPYAYDYWGQGTQVTVSS
  polyreactivity (PSR sort gate): high polyreactivity

## QVQLVESGGGLVQAGGSLRLSCAASGISFAIYAMGWYRQAPGKERELVAAISARGGTYYADSVKGRFTISRDNANNTVYSQMNSLKPEDTAVYYCNTDYVSRDDWDYRRYDYWGQGTQVTVSS
  polyreactivity (PSR sort gate): low polyreactivity

## QVQLVESGGGIVQAGGSLRLSCPASGSIFDTYAMGWYRPAPGKEREMVASWSGGSTYYADSVKGRFTISRDNAKNTVYLQMISLKPEDTAVDYCAKDYYVQPPGTRDDYWGQGSQVTVSS
  polyreactivity (PSR sort gate): low polyreactivity

## QVQLVESGGGLVQAGGSLRLTCAASGRTFHAYVMGWYRQAPGKERELVADISSGGDTYADSVKGRFTISRDNAKNTVYLQMNSLKPEDTAVYYCAVDVIQDESGYWGQGTQVTVSS
  polyreactivity (PSR sort gate): low polyreactivity

## QVQLVESGGGLVQAGGSLRLSCAASGRIFGAYAMGWYRQATGKERELVAAIRWSGARTYYADSVKGRFTISRDNAKNTVYLQMNSLKPEDTAVYYCATRQAYRPLKFDYWGQGTQVTVSS
  polyreactivity (PSR sort gate): high polyreactivity

## QVQLVESGGGLVQAGGSLRLSCAASGRTFRYYAMGWYRQAPGKEREFVAAITKRGGSTYYADSVKGRFTISRDNAKNTVYLQMNSLKPEDTAVYYCAAYPAAQFSTFSYDSWGQGTQVTVSS
  polyreactivity (PSR sort gate): high polyreactivity
